# B1: CDC34 (parent)
# chain: GGYFKARLKFPIDYPYSPPAFRFL
# Variants of: B1
# Assay: protein stability index of a GFP-peptide fusion (GPS, HEK-293T) (PSI 1-6); higher = more stable
# Settings: c terminus: a fixed tail appended
# 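Note: lentivirally expressed fusions sorted by FACS into six bins by GFP to DsRed ratio, PSI derived from sequencing read proportions per bin multiplied by bin number.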
row,Variant,protein stability index
1,AGYFKARLKFPIDYPYSPPAFRFL,2.86
2,CGYFKARLKFPIDYPYSPPAFRFL,2.8
3,DGYFKARLKFPIDYPYSPPAFRFL,1.94
4,EGYFKARLKFPIDYPYSPPAFRFL,1.58
5,FGYFKARLKFPIDYPYSPPAFRFL,2.55
6,HGYFKARLKFPIDYPYSPPAFRFL,2.91
7,IGYFKARLKFPIDYPYSPPAFRFL,3.18
8,KGYFKARLKFPIDYPYSPPAFRFL,2.88
9,MGYFKARLKFPIDYPYSPPAFRFL,3.53
10,NGYFKARLKFPIDYPYSPPAFRFL,3.03
11,PGYFKARLKFPIDYPYSPPAFRFL,2.61
12,QGYFKARLKFPIDYPYSPPAFRFL,2.39
13,RGYFKARLKFPIDYPYSPPAFRFL,2.45
14,SGYFKARLKFPIDYPYSPPAFRFL,3.14
15,TGYFKARLKFPIDYPYSPPAFRFL,3.19
16,VGYFKARLKFPIDYPYSPPAFRFL,2.45
17,WGYFKARLKFPIDYPYSPPAFRFL,2.88
18,YGYFKARLKFPIDYPYSPPAFRFL,2.68
19,GAYFKARLKFPIDYPYSPPAFRFL,3.13
20,GCYFKARLKFPIDYPYSPPAFRFL,2.22
21,GDYFKARLKFPIDYPYSPPAFRFL,2.29
22,GEYFKARLKFPIDYPYSPPAFRFL,1.94
23,GFYFKARLKFPIDYPYSPPAFRFL,2.03
24,GHYFKARLKFPIDYPYSPPAFRFL,3.54

row,Variant,protein stability index
1,GIYFKARLKFPIDYPYSPPAFRFL,3.05
2,GKYFKARLKFPIDYPYSPPAFRFL,1.9
3,GLYFKARLKFPIDYPYSPPAFRFL,2.2
4,GMYFKARLKFPIDYPYSPPAFRFL,2.92
5,GNYFKARLKFPIDYPYSPPAFRFL,2.68
6,GPYFKARLKFPIDYPYSPPAFRFL,3.31
7,GQYFKARLKFPIDYPYSPPAFRFL,2.77
8,GSYFKARLKFPIDYPYSPPAFRFL,2.18
9,GTYFKARLKFPIDYPYSPPAFRFL,3.26
10,GVYFKARLKFPIDYPYSPPAFRFL,3.03
11,GWYFKARLKFPIDYPYSPPAFRFL,2.23
12,GYYFKARLKFPIDYPYSPPAFRFL,3
13,GGAFKARLKFPIDYPYSPPAFRFL,2.68
14,GGCFKARLKFPIDYPYSPPAFRFL,3.72
15,GGEFKARLKFPIDYPYSPPAFRFL,1.29
16,GGFFKARLKFPIDYPYSPPAFRFL,1.77
17,GGGFKARLKFPIDYPYSPPAFRFL,1.63
18,GGHFKARLKFPIDYPYSPPAFRFL,3.02
19,GGIFKARLKFPIDYPYSPPAFRFL,2.63
20,GGKFKARLKFPIDYPYSPPAFRFL,3.54
21,GGLFKARLKFPIDYPYSPPAFRFL,2.32
22,GGMFKARLKFPIDYPYSPPAFRFL,2.46
23,GGNFKARLKFPIDYPYSPPAFRFL,2.44
24,GGPFKARLKFPIDYPYSPPAFRFL,3.03

row,Variant,protein stability index
1,GGQFKARLKFPIDYPYSPPAFRFL,3.35
2,GGRFKARLKFPIDYPYSPPAFRFL,3.15
3,GGSFKARLKFPIDYPYSPPAFRFL,1.54
4,GGTFKARLKFPIDYPYSPPAFRFL,2.39
5,GGVFKARLKFPIDYPYSPPAFRFL,2.61
6,GGWFKARLKFPIDYPYSPPAFRFL,2.33
7,GGYAKARLKFPIDYPYSPPAFRFL,2.97
8,GGYCKARLKFPIDYPYSPPAFRFL,3.82
9,GGYDKARLKFPIDYPYSPPAFRFL,2
10,GGYEKARLKFPIDYPYSPPAFRFL,2.79
11,GGYHKARLKFPIDYPYSPPAFRFL,1.96
12,GGYKKARLKFPIDYPYSPPAFRFL,3.11
13,GGYLKARLKFPIDYPYSPPAFRFL,3.57
14,GGYMKARLKFPIDYPYSPPAFRFL,2.51
15,GGYNKARLKFPIDYPYSPPAFRFL,2.72
16,GGYPKARLKFPIDYPYSPPAFRFL,1.54
17,GGYQKARLKFPIDYPYSPPAFRFL,1.75
18,GGYRKARLKFPIDYPYSPPAFRFL,2.76
19,GGYSKARLKFPIDYPYSPPAFRFL,3.07
20,GGYTKARLKFPIDYPYSPPAFRFL,1.94
21,GGYVKARLKFPIDYPYSPPAFRFL,3.17
22,GGYWKARLKFPIDYPYSPPAFRFL,1.73
23,GGYYKARLKFPIDYPYSPPAFRFL,2.38
24,GGYFAARLKFPIDYPYSPPAFRFL,2.24

row,Variant,protein stability index
1,GGYFCARLKFPIDYPYSPPAFRFL,2.85
2,GGYFDARLKFPIDYPYSPPAFRFL,2.63
3,GGYFEARLKFPIDYPYSPPAFRFL,2.79
4,GGYFFARLKFPIDYPYSPPAFRFL,3.5
5,GGYFHARLKFPIDYPYSPPAFRFL,2.61
6,GGYFIARLKFPIDYPYSPPAFRFL,2.76
7,GGYFMARLKFPIDYPYSPPAFRFL,3.16
8,GGYFNARLKFPIDYPYSPPAFRFL,2.89
9,GGYFPARLKFPIDYPYSPPAFRFL,1.98
10,GGYFQARLKFPIDYPYSPPAFRFL,3.03
11,GGYFRARLKFPIDYPYSPPAFRFL,2.71
12,GGYFSARLKFPIDYPYSPPAFRFL,3.33
13,GGYFTARLKFPIDYPYSPPAFRFL,2.69
14,GGYFVARLKFPIDYPYSPPAFRFL,3.61
15,GGYFKDRLKFPIDYPYSPPAFRFL,2.1
16,GGYFKERLKFPIDYPYSPPAFRFL,2.33
17,GGYFKFRLKFPIDYPYSPPAFRFL,3.63
18,GGYFKGRLKFPIDYPYSPPAFRFL,3.12
19,GGYFKHRLKFPIDYPYSPPAFRFL,3.08
20,GGYFKIRLKFPIDYPYSPPAFRFL,1.94
21,GGYFKKRLKFPIDYPYSPPAFRFL,3.08
22,GGYFKLRLKFPIDYPYSPPAFRFL,2.36
